From US20200339690A1

Columns and labels:
human LILRB2 (human) [1] = molecular target: human LILRB2 (human) (UniProt Q8N423); assay: BLI Octet sandwich binning; competitor (antibody #1 on sensor) J-19
human LILRB2 (human) [2] = molecular target: human LILRB2 (human) (UniProt Q8N423); assay: BLI Octet sandwich binning; competitor (antibody #1 on sensor) J-04
human LILRB2 (human) [3] = molecular target: human LILRB2 (human) (UniProt Q8N423); assay: BLI Octet sandwich binning; competitor (antibody #1 on sensor) J-07
human LILRB2 (human) [4] = molecular target: human LILRB2 (human) (UniProt Q8N423); assay: BLI Octet sandwich binning; competitor (antibody #1 on sensor) J-11
human LILRB2 (human) [5] = molecular target: human LILRB2 (human) (UniProt Q8N423); assay: BLI Octet sandwich binning; competitor (antibody #1 on sensor) J-17
human LILRB2 (human) [6] = molecular target: human LILRB2 (human) (UniProt Q8N423); assay: BLI Octet sandwich binning; competitor (antibody #1 on sensor) J-16
human LILRB2 (human) [7] = molecular target: human LILRB2 (human) (UniProt Q8N423); assay: BLI Octet sandwich binning; competitor (antibody #1 on sensor) J-03
human LILRB4 (human) = human LILRB4 (human) (UniProt Q8NHJ6); assay: flow cytometry, LILRB4 CHOs
human LILRA5 (human) = human LILRA5 (human) (UniProt A6NI73); assay: flow cytometry, LILRA5 CHOs
human LILRA5 (human), sequence (A6NI73 42-299 limits assumed): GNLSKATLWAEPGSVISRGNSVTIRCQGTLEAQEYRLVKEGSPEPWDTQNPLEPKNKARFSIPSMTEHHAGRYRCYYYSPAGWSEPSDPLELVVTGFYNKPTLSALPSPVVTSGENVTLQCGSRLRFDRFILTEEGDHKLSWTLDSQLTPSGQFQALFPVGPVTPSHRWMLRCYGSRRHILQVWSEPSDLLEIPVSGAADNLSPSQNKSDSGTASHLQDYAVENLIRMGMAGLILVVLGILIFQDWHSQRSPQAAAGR

human LILRB2 (human) [8] = molecular target: human LILRB2 (human) (UniProt Q8N423); assay: SPR, SierraSensor MASS-2; antibody captured on anti-human Fc chip, LILRB2 65 to 0.089 nM, duplicates
human LILRB2 (human) [9] = molecular target: human LILRB2 (human) (UniProt Q8N423); assay: SPR, SierraSensor MASS-2; antibody captured on anti-human Fc chip, LILRB2 65 to 0.089 nM, duplicates; the reference itself
human LILRB2 (human) [10] = molecular target: human LILRB2 (human) (UniProt Q8N423); assay: SPR, SierraSensor MASS-2; antibody captured on anti-human Fc chip, LILRB2 65 to 0.089 nM, triplicates
human LILRB2 (human) [11] = molecular target: human LILRB2 (human) (UniProt Q8N423); assay: BLI ForteBio Octet Red96; antibody on anti-human capture sensor, LILRB2 at 50 nM and 5 nM
human LILRA4 (human) = human LILRA4 (human) (UniProt P59901); assay: flow cytometry, LILRA4 CHOs
human LILRA4 (human), sequence (P59901 other isoform, or with tags, fused parts or gaps limits assumed): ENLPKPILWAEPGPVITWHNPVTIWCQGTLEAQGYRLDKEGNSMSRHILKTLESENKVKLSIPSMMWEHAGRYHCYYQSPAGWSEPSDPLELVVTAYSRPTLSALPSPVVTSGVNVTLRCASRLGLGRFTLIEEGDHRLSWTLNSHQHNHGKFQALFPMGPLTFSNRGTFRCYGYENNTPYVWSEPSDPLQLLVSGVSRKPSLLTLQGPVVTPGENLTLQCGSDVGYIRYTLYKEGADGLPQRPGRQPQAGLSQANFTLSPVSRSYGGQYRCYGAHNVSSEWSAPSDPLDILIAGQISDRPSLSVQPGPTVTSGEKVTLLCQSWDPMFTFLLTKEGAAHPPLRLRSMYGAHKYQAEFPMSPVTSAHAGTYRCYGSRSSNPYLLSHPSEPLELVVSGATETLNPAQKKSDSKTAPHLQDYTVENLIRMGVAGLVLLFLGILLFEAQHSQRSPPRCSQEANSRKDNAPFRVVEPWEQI

human LILRA1 (human) = human LILRA1 (human) (UniProt O75019); assay: flow cytometry, LILRA1 CHOs
human LILRA1 (human), sequence (O75019 17-489 limits assumed): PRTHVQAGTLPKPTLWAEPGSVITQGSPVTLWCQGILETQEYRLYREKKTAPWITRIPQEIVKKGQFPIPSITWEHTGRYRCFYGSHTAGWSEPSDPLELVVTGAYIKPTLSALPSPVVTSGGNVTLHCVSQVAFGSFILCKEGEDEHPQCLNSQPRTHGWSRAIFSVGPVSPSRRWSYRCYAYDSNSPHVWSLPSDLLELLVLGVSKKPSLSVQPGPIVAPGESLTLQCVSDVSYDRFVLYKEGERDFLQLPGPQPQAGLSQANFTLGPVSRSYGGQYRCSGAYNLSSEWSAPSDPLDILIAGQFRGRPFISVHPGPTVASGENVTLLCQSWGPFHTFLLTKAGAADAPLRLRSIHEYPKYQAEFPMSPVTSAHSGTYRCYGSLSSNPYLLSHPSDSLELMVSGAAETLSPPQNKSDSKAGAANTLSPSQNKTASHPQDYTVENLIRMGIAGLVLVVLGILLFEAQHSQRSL

response of antibody #2 (human LILRB2 (human) [1]) | response of antibody #2 (human LILRB2 (human) [2]) | response of antibody #2 (human LILRB2 (human) [3]) | response of antibody #2 (human LILRB2 (human) [4]) | response of antibody #2 (human LILRB2 (human) [5]) | response of antibody #2 (human LILRB2 (human) [6]) | response of antibody #2 (human LILRB2 (human) [7]) | Binder | also measured
0.28 | 0.51 | 0.1 | -0.24 | -0.27 | 0.3 | 0.01 | J-11 (antibody, human IgG4 S228P, kappa, V domains shown) VH: QVQLQQSGAELMKPGASVKLSCKATGYILTGYWIEWVKQRPGHGLEWIGEILPGSGSTNYNENFKGKATFTADTSSNTAYMQLSSLTTEDSAIYYCARAVLGYFDYWGQGTTLTVSS VL: DIVMTQSHKFMSTSVGDRVSITCKASQDVSTAVAWYQQKPGQSPKLLIYWASTRHTGVPDRFTGSGSGTDYTLTISSVQAEDLALYYCHQHYSTYTFGGGTKLEIKR | –
– | – | – | – | – | – | – | J-19.h4 (antibody, human IgG4 S228P, kappa, V domains shown) VH: QVTLKESGPALVKPTHTLTLTCTFSGFSLNTYAMGVSWIRQPPGKALEWLASIWWNGNKYNNPSLKSRLTISKDTSKNQVVLTMTNMDPEDTATFYCAHSRIIRFTDYVMDAWGRGTTVTVSS VL: DIVMTQSPSSLSASVGDTVTITCRASEDIYNDLAWYQQKPGKAPQLLLYNANSLHTGVPSRFSGSGSGTDYTLTISTLQPEDFATYYCQQYYDYPLTFGPGTKVHIKR | binding (fold over iso) (fold over iso) (human LILRB4 (human)): 2.02; binding (fold over iso) (fold over iso) (human LILRA5 (human)): 2.14
– | – | – | – | – | – | – | J-19.h7 (antibody, human IgG4 S228P, kappa, V domains shown) VH: QITLKESGPTLVKPTQTLTLTCTFSGFSLNTYAMGVSWIRQPPGKALEWLASIWWNGNKYNNPSLKSRLTVTKDTSKNQVVLTMTNMDPVDTATYYCAHSRIIEFTDYVMDAWGQGTLVTVSS VL: DIQMTQSPSSLSTSVGDRVTITCRASEDIYNDLAWYQQKPGKAPKLLIYNANSLHTGVASRFSGSGSGTDFTFTISSLQPEDVATYFCQQYYDYPLTFGQGTKLEIKR | Fold difference over J-19.h1 (human LILRB2 (human) [8]): 2.73 fold; Kd (human LILRB2 (human) [8]): 0.912 nM; koff (human LILRB2 (human) [8]): 0.000788 s⁻¹; kon (human LILRB2 (human) [8]): 865000 M⁻¹ s⁻¹
– | – | – | – | – | – | – | J-19.h1 (antibody, human IgG4 S228P, kappa, V domains shown) VH: QITLKESGPTLVKPTQTLTLTCTFSGFSLNTYAMGVSWIRQPPGKALEWLASIWWNGNKYNNPSLKSRLTVTKDTSKNQVVLTMTNMDPVDTATYYCAHSRIIRFTDYVMDAWGQGTLVTVSS VL: DIQMTQSPSSLSTSVGDRVTITCRASEDIYNDLAWYQQKPGKAPKLLIYNANSLHTGVASRFSGSGSGTDFTFTISSLQPEDVATYFCQQYYDYPLTFGQGTKLEIKR | Fold difference over J-19.h1 (human LILRB2 (human) [9]): 1 fold; Kd (human LILRB2 (human) [8]): 2.49 nM; koff (human LILRB2 (human) [8]): 0.00176 s⁻¹; kon (human LILRB2 (human) [8]): 705000 M⁻¹ s⁻¹
– | – | – | – | – | – | – | J-19.h5 (antibody, human IgG4 S228P, kappa, V domains shown) VH: QITLKESGPTLVKPTQTLTLTCTFSGFSLNTYAMGVSWIRQPPGKALEWLASIWWNGNKYNNPSLKSRLTVTKDTSKNQVVLTMTNMDPVDTATYYCAHSRIIAFTDYVMDAWGQGTLVTVSS VL: DIQMTQSPSSLSTSVGDRVTITCRASEDIYNDLAWYQQKPGKAPKLLIYNANSLHTGVASRFSGSGSGTDFTFTISSLQPEDVATYFCQQYYDYPLTFGQGTKLEIKR | Fold difference over J-19.h1 (human LILRB2 (human) [10]): 1.91 fold; Kd (human LILRB2 (human) [10]): 1.31 nM; koff (human LILRB2 (human) [10]): 0.00115 s⁻¹; kon (human LILRB2 (human) [10]): 876000 M⁻¹ s⁻¹; fold higher affinity compared to J-19.h1 (human LILRB2 (human) [11]): 2 fold
– | – | – | – | – | – | – | J-19.h6 (antibody, human IgG4 S228P, kappa, V domains shown) VH: QITLKESGPTLVKPTQTLTLTCTFSGFSLNTYAMGVSWIRQPPGKALEWLASIWWNGNKYNNPSLKSRLTVTKDTSKNQVVLTMTNMDPVDTATYYCAHSRIIDFTDYVMDAWGQGTLVTVSS VL: DIQMTQSPSSLSTSVGDRVTITCRASEDIYNDLAWYQQKPGKAPKLLIYNANSLHTGVASRFSGSGSGTDFTFTISSLQPEDVATYFCQQYYDYPLTFGQGTKLEIKR | Fold difference over J-19.h1 (human LILRB2 (human) [10]): 3.47 fold; Kd (human LILRB2 (human) [10]): 0.718 nM; koff (human LILRB2 (human) [10]): 0.000592 s⁻¹; kon (human LILRB2 (human) [10]): 825000 M⁻¹ s⁻¹
0.54 | -0.1 | -0.3 | 0.54 | 0.46 | -0.31 | -0.07 | J-04 (antibody, human IgG4 S228P, kappa, V domains shown) VH: QVQLQQSGAELVRPGASVTLSCKASGYTFADYEIHWVKQTPVHGLEWIGAIDPETGGTAYNQKFKGKAILTADKSSSTAYMELRSLTSEDSAVYYCTRYYDYDDAMDYWGQGTSVTVSS VL: QIVLTQSPAIMSASPGEKVTMTCSASSSVSFMHWYQQKSGTSPKRWIYGTSKLASGVPARFSGSGSGTSYSLTISSMEAEDAATYYCQQWNGNPFTFGSGTKLETKR | binding (fold over iso) (fold over iso) (human LILRA4 (human)): 2.07
-0.21 | 0.67 | 0.27 | 0.71 | -0.1 | 0.47 | 0.15 | J-19 (antibody, human IgG4 S228P, kappa, V domains shown) VH: QVTLKESGPGILQPSHTLSLTCSFSGFSLNTYAMGVSWIRQPSGKGLEWLASIWWNGNKYNNPSLKSRLTVSKDTSNNQAFLKVTSVDTADTATYYCAHSRIIRFTDYVMDAWGQGASVTVSS VL: DIQMTQSPASLSTFLGEPVTIECRASEDIYNDLAWYQQKPGKSPQLLIYNANSLHTGVPSRFSGSGSGTQYSLKINSLQSEDVASYFCQQYYDYPLTFGSGTKLEIKR | –
-0.21 | 0.42 | 0.04 | -0.39 | -0.11 | 0.09 | 0.05 | J-17 (antibody, human IgG4 S228P, kappa, V domains shown) VH: QIQLVQSGPELKKPGETVKISCKASGYTFTTYGLSWVKQTPGKGLKWMGWINTYSGVPTYTDDFKGRFAFSLETSASTAYLQINNLKNEDTATYFCARPYDFDQVGFAYWGQGTLVTVSA VL: SIVMTQTPKFLLVSAGDRVSITCKASQTVSSDVAWYQQKAGQSPKLLIYYASNRYTGVPDRFTGSGYGTDFTFTISTVQAEDLAVYFCQQDYSSPFTFGGGSKLEIKR | binding (fold over iso) (fold over iso) (human LILRA1 (human)): 7.31
